Tests used:
Format in all cases: in vivo
[1] = system: Arabidopsis thaliana T1 plants; experiment: Topramezone tolerance of transgenic Arabidopsis thaliana T1 plants (spray, bleached leaf area grade, damage score); conditions: 7 DAT, Table 4; for Classification and statistics of the grade of pesticide damage: Grade 0 / Classification and statistics of the grade of pesticide damage: Grade 1 / Classification and statistics of the grade of pesticide damage: Grade 2 / Classification and statistics of the grade of pesticide damage: Grade 3: number of plants; for Scores: pesticide damage score 0-100
How it was run: (§1)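 Damage was assessed by bleaching grade (0 none; 1 <50%; 2 >50%; 3 100% of leaf area) one week after spraying. Sprays on 18-day-old T1 and wild-type plants used field-rate multiples: topramezone 25–200, isoxaflutole 35–280, mesotrione 52.5–420 g ai/ha.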

[2] = system: Arabidopsis thaliana T1 plants; experiment: Isoxaflutole tolerance of transgenic Arabidopsis thaliana T1 plants (spray, bleached leaf area grade, damage score); parameters: Scores (pesticide damage): scale not given here; conditions: spray, Arabidopsis thaliana T1 plants; for Classification and statistics of the grade of pesticide damage: Grade 0 (number of plants) / Classification and statistics of the grade of pesticide damage: Grade 1 (number of plants) / Classification and statistics of the grade of pesticide damage: Grade 2 (number of plants) / Classification and statistics of the grade of pesticide damage: Grade 3 (number of plants): 16 plants
How it was run: as §1

[3] = system: Arabidopsis thaliana T1 plants; experiment: Mesotrione tolerance of transgenic Arabidopsis thaliana T1 plants (spray, bleached leaf area grade, damage score); parameters: Scores: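 damage score 0-100 computed as Σ(N×S)/(T×M)×100 over grades 0-3 with higher meaning more damage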; conditions: Arabidopsis thaliana T1 plants; for Grade 0 (classification and statistics of the grade of pesticide damage; number of plants) / Grade 1 (classification and statistics of the grade of pesticide damage; number of plants) / Grade 2 (classification and statistics of the grade of pesticide damage; number of plants) / Grade 3 (classification and statistics of the grade of pesticide damage; number of plants): 16 plants
How it was run: as §1

[4] = isoxaflutole 35 g ai/ha (0.5x field concentration)
[5] = isoxaflutole 70 g ai/ha (1x field concentration)

B1: ZmHPPDm-F372A-02: nucleotide sequence encoding Zea mays HPPD with F372A; vector DBN11767 (nucleic acid)
DNA: ATGCCACCCACACCCACAGCAGCAGCGGCGGGCGCAGCGGTCGCAGCGGCGTCAGCGGCGGAGCAAGCGGCGTTCAGATTGGTTGGTCACCGCAACTTCGTGAGATTCAATCCTCGCTCAGATAGATTCCATACTCTGGCCTTCCACCATGTTGAGCTTTGGTGCGCTGATGCTGCTTCTGCTGCTGGAAGGTTCAGCTTCGGTTTGGGTGCTCCCCTCGCTGCTAGATCTGATTTGAGCACTGGTAACTCAGCACATGCTTCCCTCCTGCTTAGATCTGGCTCTCTGAGCTTCCTTTTCACTGCTCCATATGCTCATGGTGCTGATGCTGCTACAGCTGCTCTCCCTTCATTCTCCGCTGCTGCTGCTAGGAGATTCGCTGCTGATCACGGATTGGCTGTGAGGGCTGTTGCACTTAGAGTTGCTGATGCTGAGGAGGCCTTCCGCACCTCTGTTGCTGCTGGAGCCAGACCAGCTTTCGGACCTGTTGATCTCGGAAGGGGTTTCCGCCTGGCTGAGGTGGAGCTTTACGGCGATGTGGTTCTGCGCTACGTTAGCTATCCTGATGGTGCTGCTGGTGAACCTTTCCTTCCAGGATTCGAGGGTGTGGCCTCACCAGGTGCCGCTGATTACGGCCTGTCCAGATTCGACCACATTGTTGGAAATGTTCCTGAGCTTGCTCCAGCTGCTGCCTACTTCGCTGGCTTCACCGGATTCCATGAGTTCGCCGAGTTCACCACTGAGGATGTGGGAACTGCTGAGTCTGGTTTGAATAGCATGGTGCTCGCCAACAATTCAGAGAACGTTTTGCTCCCTCTGAATGAGCCCGTGCACGGAACAAAGAGAAGGTCCCAGATTCAAACCTTCTTGGATCACCACGGCGGCCCAGGTGTTCAGCATATGGCTCTCGCCTCCGATGACGTGTTGAGAACCCTCAGGGAGATGCAAGCCAGGTCTGCTATGGGTGGCTTCGAGTTCATGGCCCCACCTACAAGCGATTACTATGATGGTGTGCGCAGAAGGGCTGGCGACGTTCTTACCGAGGCTCAGATCAAGGAGTGCCAAGAGCTGGGCGTGCTTGTTGATAGAGATGACCAGGGAGTTCTGCTTCAAATTGCTCCCAAGCCAGTGGGCGACAGGCCTACTTTGTTCCTCGAGATTATCCAGAGAATCGGATGCATGGAGAGGGATGAGAAGGGTCAGGAGTACCAAAAGGGAGGTTGCGGCGGATTCGGCAAGGGAAATTTCTCACAACTCTTCAAGTCCATCGAGGACTATGAAAAGAGTCTGGAAGCGATGCAGGCAGCAGCAGCAGCAACCGCACAGGGGTCGTGA
modifications: ZmHPPDm-F372A-02 Nucleotide Sequence
notes: vector DBN11767
- Classification and statistics of the grade of pesticide damage: Grade 0 ([1]; topramezone 25 g ai/ha (1×)): 16
- Classification and statistics of the grade of pesticide damage: Grade 1 ([1]; topramezone 25 g ai/ha (1×)): 0
- Classification and statistics of the grade of pesticide damage: Grade 2 ([1]; topramezone 25 g ai/ha (1×)): 0
- Classification and statistics of the grade of pesticide damage: Grade 3 ([1]; topramezone 25 g ai/ha (1×)): 0
- Classification and statistics of the grade of pesticide damage: Grade 0 ([1]; topramezone 100 g ai/ha (4×)): 4
- Classification and statistics of the grade of pesticide damage: Grade 1 ([1]; topramezone 100 g ai/ha (4×)): 12
- Classification and statistics of the grade of pesticide damage: Grade 2 ([1]; topramezone 100 g ai/ha (4×)): 0
- Classification and statistics of the grade of pesticide damage: Grade 3 ([1]; topramezone 100 g ai/ha (4×)): 0
- Scores ([1]; topramezone 25 g ai/ha (1×)): 0
- Scores ([1]; topramezone 100 g ai/ha (4×)): 25
- Resistance evaluation ([1]; topramezone 25 g ai/ha (1×)): highly
- Resistance evaluation ([1]; topramezone 100 g ai/ha (4×)): moderately
- Resistance evaluation [2, 4]: Moderately
- Scores (pesticide damage) [2, 4]: 33
- Classification and statistics of the grade of pesticide damage: Grade 0 (number of plants) [2, 4]: 3
- Classification and statistics of the grade of pesticide damage: Grade 1 (number of plants) [2, 4]: 10
- Classification and statistics of the grade of pesticide damage: Grade 2 (number of plants) [2, 4]: 3
- Classification and statistics of the grade of pesticide damage: Grade 3 (number of plants) [2, 4]: 0
- Resistance evaluation [2, 5]: Poorly
- Scores (pesticide damage) [2, 5]: 67
- Classification and statistics of the grade of pesticide damage: Grade 0 (number of plants) [2, 5]: 0
- Classification and statistics of the grade of pesticide damage: Grade 1 (number of plants) [2, 5]: 1
- Classification and statistics of the grade of pesticide damage: Grade 2 (number of plants) [2, 5]: 14
- Classification and statistics of the grade of pesticide damage: Grade 3 (number of plants) [2, 5]: 1
- Resistance evaluation ([3]; mesotrione 52.5 g ai/ha): Moderately
- Scores ([3]; mesotrione 52.5 g ai/ha): 31
- Grade 0 (classification and statistics of the grade of pesticide damage; number of plants) ([3]; mesotrione 52.5 g ai/ha): 3
- Grade 1 (classification and statistics of the grade of pesticide damage; number of plants) ([3]; mesotrione 52.5 g ai/ha): 11
- Grade 2 (classification and statistics of the grade of pesticide damage; number of plants) ([3]; mesotrione 52.5 g ai/ha): 2
- Grade 3 (classification and statistics of the grade of pesticide damage; number of plants) ([3]; mesotrione 52.5 g ai/ha): 0
- Resistance evaluation ([3]; mesotrione 105 g ai/ha): Poorly resistant
- Scores ([3]; mesotrione 105 g ai/ha): 67
- Grade 0 (classification and statistics of the grade of pesticide damage; number of plants) ([3]; mesotrione 105 g ai/ha): 0
- Grade 1 (classification and statistics of the grade of pesticide damage; number of plants) ([3]; mesotrione 105 g ai/ha): 1
- Grade 2 (classification and statistics of the grade of pesticide damage; number of plants) ([3]; mesotrione 105 g ai/ha): 14
- Grade 3 (classification and statistics of the grade of pesticide damage; number of plants) ([3]; mesotrione 105 g ai/ha): 1

Reference: patent US20250043302A1, “MUTATED HYDROXYPHENYLPYRUVATE DIOXYGENASE POLYPEPTIDE, AND CODING GENE AND USE THEREOF” (BEIJING DABEINONG BIOTECHNOLOGY CO., LTD., priority 2021, published 2025)
